Results published in PMC3195632.

Test system: His6-H1.4 (unphosphorylated) (human)
Test: EMSA

In the case of 216-bp 601 mononucleosome, the binding signal (% shifted (H1-shifted band)) is reported as 35.9.
